Experiments:
Assay in all cases: SPOT array
[1] = target: T1, Rvs167 SH3 (RV167_YEAST), P39743
T1 chain: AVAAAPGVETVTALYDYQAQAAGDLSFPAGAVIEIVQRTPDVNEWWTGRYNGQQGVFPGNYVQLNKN

[2] = target: T2, Boi2 SH3 (BOI2_YEAST), P39969
T2 chain: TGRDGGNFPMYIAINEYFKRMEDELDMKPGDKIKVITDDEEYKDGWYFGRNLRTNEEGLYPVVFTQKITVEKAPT

[3] = target: T3, Boi1 SH3 (BOI1_YEAST), P38041
T3 chain: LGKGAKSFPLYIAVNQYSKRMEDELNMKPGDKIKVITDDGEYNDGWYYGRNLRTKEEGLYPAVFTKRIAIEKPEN

[4] = target: T4, Myo5 SH3 (MYO5_YEAST), Q04439
T4 chain: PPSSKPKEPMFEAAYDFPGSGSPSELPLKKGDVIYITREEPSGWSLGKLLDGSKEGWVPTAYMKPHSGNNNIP

[5] = target: T5, Yhr016c SH3 (YSC84_YEAST), P32793
T5 chain: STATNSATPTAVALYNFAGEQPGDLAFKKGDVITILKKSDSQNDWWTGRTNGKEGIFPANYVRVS

[6] = target: Sho1 SH3 (SHO1_YEAST), P40073
[7] = target: T6, Yfr024 SH3 (LSB3_YEAST), P43603
T6 chain: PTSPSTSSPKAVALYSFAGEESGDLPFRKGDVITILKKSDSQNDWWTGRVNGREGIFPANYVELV

Sho1 SH3 (SHO1_YEAST), P40073, sequence (P40073 295-366): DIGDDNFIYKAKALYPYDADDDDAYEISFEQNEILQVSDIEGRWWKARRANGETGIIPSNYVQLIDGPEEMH

Binder | normalised SPOT signal, Boehringer light units (BLU); mean over the file's lines of this peptide [1] | normalised SPOT signal, Boehringer light units (BLU); mean over the file's lines of this peptide [2] | normalised SPOT signal, Boehringer light units (BLU); mean over the file's lines of this peptide [3] | normalised SPOT signal, Boehringer light units (BLU); mean over the file's lines of this peptide [4] | normalised SPOT signal, Boehringer light units (BLU); mean over the file's lines of this peptide [5] | normalised SPOT signal, Boehringer light units (BLU); mean over the file's lines of this peptide [6] | normalised SPOT signal, Boehringer light units (BLU); mean over the file's lines of this peptide [7]
SENGRLTPGLPRSY [YPR111W 42-55] | 235 | 30.7 | 64.5 | 170 | 52.2 | 35.8 | 240
SERRKALPKEPKKL [YIR010W 418-431] | 87.9 | 43.6 | 1170 | 200 | 49.3 | 29500 | 649
SETARKVPPIPTQI [YPL249C 247-260] | 21500 | 34.5 | 73 | 420 | 8100 | 29.9 | 19400
SFIRKRAPTPPAPS [YBR108W 721-734] | 250 | 30.6 | 3210 | 878 | 99.6 | 208 | 1500
SFVTKYLPAAPVGS [YJR019C 24-37] | 100 | 18.9 | 27 | 215 | 82.1 | 2510 | 53.3
SGSGRRYPQTPSYY [YJL095W 698-711] | 137 | 41.3 | 593 | 436 | 226 | 168 | 638
SIIPRIFPSTPGTI [YGL233W 770-783] | 369 | 22.2 | 176 | 369 | 32.6 | 632 | 448
SILNRSVPKRPTID [YAL017W 1333-1346] | 28300 | 8.2 | 958 | 133 | 11900 | 96.4 | 39200
SILRKSSPEEPFMS [YNR023W 296-309] | 162 | 43 | 132 | 144 | 22.1 | 54.4 | 327
SKIKRSRPPPPPMD [YDR239C 144-157] | 185 | 35.1 | 1250 | 5410 | 123 | 167 | 1450
SKIPKSIPIIPYVL [YLR328W 26-39] | 73.2 | 25.9 | 151 | 243 | 33.4 | 76.7 | 42.7
SKNWKLPPRLPHRA [YIR018W 25-38] | 10200 | 29.8 | 7830 | 5570 | 21900 | 4940 | 39100
SKRMKALPKGPAAL [YER164W 1316-1329] | 204 | 66.1 | 1730 | 822 | 114 | 6310 | 1540
SKVNKVAPDHPFIQ [YDR345C 274-287] | 12.9 | 9.5 | 122 | 72.1 | 7.1 | 0 | 13.5
SKYAKLDPSTPVSL [YNL239W 287-300] | 42.2 | 39.1 | 101 | 457 | 48.5 | 32.6 | 26.4
SLGERFMPMAPEVY [YBR017C 618-631] | 32.8 | 51.3 | 49.7 | 140 | 7.3 | 3.7 | 15.8

Source: article PMC314469, “Protein Interaction Networks by Proteome Peptide Scanning” (PLoS Biology, 2004)
